Patent US20170260241A1

Biological target: recombinant TLR4 protein
Test: ELISA: TLR4 coated on the plate, MD2 titrated from 133.3 to 0.065 nM, anti-MD2 detection, nonlinear regression

recombinant MD2 protein (ligand)
Kd: 18.4 nM
